In publication PMC5075775:

Columns and labels:
[1] = system: monoclonal anti-dsDNA antibody HYB 331-01, clone 35I9; test: ELISA; settings: SPR: Biacore X100, SA chip, immobilisation in HBS-EP+ (0.1 M HEPES, 1.5 M NaCl, 30 mM EDTA, 0.5% P20), 37 C, ELISA: antigens coated in PBS, diluent PBS …
[2] = system: monoclonal anti-DNA antibody ED-10; test: SPR; settings: SPR: Biacore X100, SA chip, immobilisation in HBS-EP+ (0.1 M HEPES, 1.5 M NaCl, 30 mM EDTA, 0.5% P20), 37 C, ELISA: antigens coated in PBS, diluent PBS …

Sequence: AGGGAGGGGGAGAGGGAGAGG (double strand) [D11 (AG)]
- binding signal [1]: 0.78 A450

Sequence: ATTTATTTTT (double strand) [D16 (AT 10mer)]
- binding signal [1]: 0.76 A450

Sequence: ATTTATTTTTATATTTATATT (double strand) [D8 (AT, SEQ6)]
- binding signal [1]: 1.27 A450

Sequence: ATTTATTTTTATATTTATATTATTTATTTTTATATTTATATTATTTATTTTTATATTTATATT (double strand) [D18 (AT 63mer)]
- binding signal [1]: 1.44 A450

Sequence: CCACACCCACACCCCCACCCA (double strand) [D12 (CA)]
- binding signal [1]: 0.78 A450

Sequence: GGAGAGGGAGAGGGGGAGGGA (double strand) [D13 (GA)]
- binding signal [1]: 0.89 A450

Sequence: TAATATATTTATATTTATATT (double strand) [D2 (TA)]
- binding signal [1]: 1.11 A450

Sequence: TCCTCTCTTT (double strand) [D15 (TC 10mer)]
- binding signal [1]: 0.9 A450

Sequence: TCCTCTCTTTCTCTTTCTCTT (double strand) [D1 (SEQ5)]
- binding signal [1]: 1.41 A450

Sequence: TCCTCTCTTTCTCTTTCTCTT (double strand) [D19 (LNA pattern of SEQ1)]
- binding signal ([1]; LNA at 4, 13, 19 of strand 1): 1.12 A450

Sequence: TCCTCTCTTTCTCTTTCTCTT (double strand) [D20]
- binding signal ([1]; LNA at 1, 4 of strand 1): 0.89 A450

Sequence: TCCTCTCTTTCTCTTTCTCTT (double strand) [D21]
- binding signal ([1]; LNA at 11, 13 of strand 1): 0.77 A450

Sequence: TCCTCTCTTTCTCTTTCTCTT (double strand) [D22]
- binding signal ([1]; LNA at 4 of strand 1): 0.56 A450

Sequence: TCCTCTCTTTCTCTTTCTCTT (double strand) [SEQ4 biotinylated LNA/DNA duplex (SPR)]
- Kd ([2]; ka 1.009e8, kd 7.860e-1, text also claims higher binding of SEQ4, LNA at 4, 10, 13, 19 of strand 1 by plus signs (Table 1 lists 4, 10, 14, 19)): 779 nM

Sequence: TCCTCTCTTTCTCTTTCTCTT (double strand) [SEQ5 biotinylated duplex (SPR)]
- Kd ([2]; ka 3.341e3, kd 3.531e-4): 106 nM

Sequence: TCCTCTCTTTCTCTTTCTCTTTCCTCTCTTTCTCTTTCTCTTTCCTCTCTTTCTCTTTCTCTT (double strand) [D17 (TC 63mer)]
- binding signal [1]: 1.5 A450

Sequence: TGAACTCTATGTCTGTATCAT (double strand) [D14 (ATCG mixmer, SEQ7)]
- binding signal [1]: 1.55 A450

Sequence: TGGTGTGTTTGTGTTTGTGTT (double strand) [D3 (TG)]
- binding signal [1]: 1.13 A450

Sequence: TTATATTTATATTTATATAAT (double strand) [D6 (AT)]
- binding signal [1]: 1 A450

Sequence: TTCTCTTTCTCTTTCTCTCCT (double strand) [D5 (CT)]
- binding signal [1]: 0.98 A450

Sequence: TTGTGTTTGTGTTTGTGTGGT (double strand) [D7 (GT)]
- binding signal [1]: 1.87 A450
